Results published in US8821943B2, “Methods and compositions for targeted delivery of therapeutic agents” (Board of Regents of the University of Nebraska, priority 2006, dated 2014).

Assays:
ARPE-19 cells = assay: Nanoparticle uptake by human retinal pigment epithelial cells; format: cell-based; conditions: 1 ml of 100 μg/ml suspension in serum free medium
Method: A study was performed to examine the effect of targeting moieties on biodegradable and non-biodegradable carrier particles and their uptake in ocular cells. The biodegradable and non-biodegradable targeted carrier particles of the preceding Example were used. Uptake of nanoparticles by human retinal pigment epithelial cells (ARPE-19 cell line) was quantified by measuring fluorescence in cell lysate obtained after incubation of targeted or untargeted (unconjugated) nanoparticles with ARPE-19 cell monolayers.
ARPE-19 cells were obtained from American Type Culture Collection (ATCC, Manassas, Va.). The cells were maintained in culture according to supplier's recommendation. All studies were conducted using confluent cells of passages 20-30. Dulbecco's modified Eagle's medium (DMEM-F/12), fetal bovine serum, penicillin-streptomycin and L-glutamine were obtained from Gibco-BRL (Invitrogen Inc., Carlsbad, Calif.). Cell culture flasks (T-75 cm^2) and plates were purchased from Corning Inc., (Corning, N.Y.). To investigate the uptake of particles, ARPE-19 cells between 20-30 passages were cultured in 24-well plates until confluency. […] Fluorescence intensity of the cell lysates was determined at an excitation and emission wavelength of 505 and 515 nm, respectively, for FluoSpheres®. […]

[1] = tested on: excised bovine nasal tissue (MTA, MTP, ITP regions); assay: Nanoparticle transport and uptake across excised bovine nasal tissue (Ussing chambers); format: in vitro ADME; conditions: for Remaining in Donor / Total / Washes: mass balance; for Tissue Uptake / Transport: mass balance after 4 hr transport; for decrease in transport on co-treatment with free ligand / decrease in uptake on co-treatment with free ligand: m:s
Method: Transport studies were conducted in bovine nasal tissue. Bovine nasal tissue was obtained from freshly slaughtered cattle, and different regions (MTA, MTP, ITP) were prepared as described in Example 13. Nanoparticles coupled to deslorelin or transferring via aldehyde sulfate moieties were prepared as described in Example 3. The nanoparticle size was measured using a Zeta Plus Analyzer (Brookhaven Instruments Limited, UK). Particle size was analyzed before and after ligand conjugation in deionized filtered water.
The tissues were exposed to 5 ml of assay buffer with either peptide conjugated or plain nanoparticles on the donor side (mucosal or serosal surface). Assay buffer (5 ml) without particles was exposed to the receiver side (serosal or mucosal surface). The buffers used were pre-equilibrated to 37° C. or 4° C. The donor nanoparticle concentration was 20 or 100 μg/ml. […] Donor samples were collected at the beginning (replenished with particle stock suspension) and at the end of the experiment. The samples were collected in polypropylene tubes, capped, and stored at 4° C. until analysis. The aperture/tissue area exposed to the bathing fluids in this set up was 1.78 cm^2.
Nanoparticle Uptake: At the end of 4 hr in the above transport studies, the tissues exposed (1.78 cm^2) to the nanoparticle suspension were cut and washed thrice using 1 ml of assay buffer at pH 5. After the washes, the tissues were weighed and placed in 1 ml of 2% Triton-X 100™ and homogenized until a tissue suspension was formed using the Tissue Tearor™. The tissue debris was separated by centrifugation at 3000 rpm (Marathon Micro A, Fisher Scientific, Pittsburgh, Pa.) for 10 min. The supernatant was collected to analyze the amount of nanoparticles taken up by the tissue. Standard curves were prepared by homogenizing serial dilution of the stock solution with approximately 100-150 mg of nasal tissue. The homogenates were then centrifuged and the supernatant was analyzed.
Nanoparticle Transport and Uptake: Competition with Free Ligand: Similar to the transport and uptake studies mentioned above, the competition study was carried out using the modified Ussing chambers. The tissues were exposed to 20 μg/ml of nanoparticles conjugated with deslorelin or transferrin in the presence of 10 times (200 μg/ml) of plain deslorelin or transferrin in the donor chamber. Receiver samples were obtained at various intervals up to 4 hr and replaced with pre-warmed assay buffer. At the end of 4 hr the tissue region exposed to the nanoparticle preparation was cut and washed in assay buffer at pH 5. The tissues were then homogenized and centrifuged. The supernatants were analyzed to determine nanoparticle uptake.
Nanoparticle Quantification: The samples obtained from the transport studies, washes and supernatants of tissue homogenates were analyzed for nanoparticle content using a spectrofluorometer (Cary Eclipse, Varian Inc.). The excitation wavelength of 505 nm and an emission wavelength of 515 nm were used. Bandwidths of 3 or 5 nm were used for the sample analysis after dilution as required. The procedure used for extraction of the nanoparticles was performed as mentioned in the methods section under nanoparticle uptake. […] Briefly, similar amounts of tissues (weighed to match weight of tissues obtained from the transport experiment) were spiked with serially diluted stock nanoparticle suspensions (0.3 μg/ml-100 μg/ml) prepared in 2% Triton-X 100™. The tissues were homogenized, centrifuged and the supernatant obtained was used for standards. Standard curves were also prepared in assay buffer and acid wash buffer.

[2] = 20 μg/ml nanoparticles + 200 μg/ml free ligand, ITP
[3] = 20 μg/ml nanoparticles + 200 μg/ml free ligand, MTP

Transferrin-AS: transferrin-aldehyde sulphate-conjugated polystyrene nanoparticles
percentage uptake at 3 h by ARPE-19 cells (ARPE-19 cells): 12.2±0.26%
transport in the s:m direction greater than in the m:s direction ([1]; ITP): 10%
Remaining in Donor ([1]; ITP): 94.51 ± 1.10%
Total ([1]; ITP): 98.62 ± 1.13%
Washes ([1]; ITP): 0.75 ± 0.10%
Tissue Uptake ([1]; ITP): 3.98 ± 0.10%
Transport ([1]; ITP): 1.97 ± 0.05%
transport in the s:m direction greater than in the m:s direction ([1]; MTA): 16%
uptake, times higher than plain nanoparticles ([1]; MTA): 3.6 times
percent transport as well as uptake, times higher than deslorelin-nanoparticles ([1]; MTA, MTP and ITP regions): 1.3-1.4 times
Remaining in Donor ([1]; MTA): 93.06 ± 0.99%
Total ([1]; MTA): 98.77 ± 0.95%
Washes ([1]; MTA): 0.50 ± 0.13%
Tissue Uptake ([1]; MTA): 2.13 ± 0.13%
Transport ([1]; MTA): 1.13 ± 0.07%
transport in the s:m direction greater than in the m:s direction ([1]; MTP): 17%
uptake, times higher than plain nanoparticles ([1]; MTP): 2.9 times
Remaining in Donor ([1]; MTP): 92.14 ± 2.20%
Total ([1]; MTP): 98.99 ± 0.52%
Washes ([1]; MTP): 0.60 ± 0.11%
Tissue Uptake ([1]; MTP): 2.99 ± 0.14%
Transport ([1]; MTP): 1.52 ± 0.11%
decrease in uptake at 4° C. compared to 37° C. ([1]; m:s direction, ITP): 77%
percent transport, times higher than plain nanoparticles ([1]; m:s direction, ITP): ~1.8 times
decrease in uptake at 4° C. compared to 37° C. ([1]; m:s direction, MTA): 58%
percent transport, times higher than plain nanoparticles ([1]; m:s direction, MTA): approximately 3.3 times
decrease in uptake at 4° C. compared to 37° C. ([1]; m:s direction, MTP): 70%
percent transport, times higher than plain nanoparticles ([1]; m:s direction, MTP): ~2.1 times
decrease in transport on co-treatment with free ligand [1, 2]: 25%
decrease in uptake on co-treatment with free ligand [1, 2]: 44%
decrease in uptake on co-treatment with free ligand ([1]; 20 μg/ml nanoparticles + 200 μg/ml free ligand, MTA): 43%
decrease in transport on co-treatment with free ligand [1, 3]: 33%
decrease in uptake on co-treatment with free ligand [1, 3]: 45%
decrease in transport on co-treatment with free ligand ([1]; 20 μg/ml nanoparticles + 200 μg/ml plain deslorelin or transferrin, MTA): 22%
decrease in uptake at 4° C. compared to 37° C. ([1]; s:m direction, ITP): 80%
decrease in uptake at 4° C. compared to 37° C. ([1]; s:m direction, MTA): 65%
decrease in uptake at 4° C. compared to 37° C. ([1]; s:m direction, MTP): 75%
